According to US20260273112A1 (WASHINGTON UNIVERSITY, published 2026):

Target: T1, Recombinant human CD38 protein (R&D, Catalog 2404-AC-010) (human, UniProt P28907 43-300)
T1 construct: In the MST assay the protein was labeled with NT647 (red-maleimide kit) and used at 5 nM; also called purified CD38 protein; purified human CD38 protein
Experiment: MST, NT647-labeled recombinant human CD38 at 5 nM, peptide titrated, 37 C
Procedure: Microscale thermophoresis (MST) assays determined the binding affinity of synthesized peptides to purified CD38 protein and was performed using the Monolith NT.115 (Nanotemper Technologies, Munich, Germany). […] Recombinant human CD38 protein (R&D, Catalog 2404-AC-010, Minneapolis, MN) was labeled with NT647 (Protein labeling kit red-maleimide, Nanotemper Technologies, Germany) and subsequently diluted to 5 nM in MST-2 buffer (50 mM Tris-HCl, pH 7.4, 150 mM NaCl, 10 mM MgCl₂, 2% DMSO, and 0.1% Tween-20). Fluorescence was assessed in MST-2 buffer. Samples were loaded into NT.115 standard capillaries, and analysis was performed at 37° C., 10% LED power, and 40% MST power. The Kd values were calculated from fragment concentration-dependent changes in normalized fluorescence (Fraction Bound) of different CD38 peptides based on the law of mass action using the MO Affinity Analysis v2.3 software.

Row | Kd [nM] | Binder
1 | 243 | FSRDWTSGGSK (N-terminal acetyl (AC); C-terminal amide (NH2)) [AC-SL028-GGS (AC-Phe-Ser-Arg-Asp-Trp-Thr-Ser-Gly-Gly-Ser-Lys-NH2)]
2 | 82.6 | H-KGGSFSRDWTS-NH2 (Synthetic peptide, high score cluster B) [GGS-SL028 (H-Lys-Gly-Gly-Ser-Phe-Ser-Arg-Asp-Trp-Thr-Ser-NH2)]
